Source: patent publication US20250179143A1, “SYSTEMS AND METHODS FOR CHAPERONE-MEDIATED LIGAND EXCHANGE ON MHC-I AND MHC-RELATED MOLECULES USING CHICKEN TAPBPR” (priority 2022, published 2025)

Columns and labels:
[1] = molecular target: peptide-deficient (empty) HLA-B*37:01/hb2m (human); experiment: SPR, TAPBPR-biotin on streptavidin chip, UV-irradiated (empty) HLA as analyte; conditions: remark: other sources report otherwise
[2] = molecular target: 96 HLA-I allotypes on single antigen beads (SABs); experiment: SAB tetramer assay, ratio to W6/32 control

B1: human TAPBPR luminal domain (hTAPBPR), Q9BX59 22-405 (protein)
chain: KPHPAEGQWRAVDVVLDCFLAKDGAHRGALASSEDRARASLVLKQVPVLDDGSLEDFTDFQGGTLAQDDPPIIFEASVDLVQIPQAEALLHADCSGKEVTCEISRYFLQMTETTVKTAAWFMANMQVSGGGPSISLVMKTPRVTKNEALWHPTLNLPLSPQGTVRTAVEFQVMTQTQSLSFLLGSSASLDCGFSMAPGLDLISVEWRLQHKGRGQLVYSWTAGQGQAVRKGATLEPAQLGMARDASLTLPGLTIQDEGTYICQITTSLYRAQQIIQLNIQASPKVRLSLANEALLPTLICDIAGYYPLDVVVTWTREELGGSPAQVSGASFSSLRQSVAGTYSISSSLTAEPGSAGATYTCQVTHISLEEPLGASTQVVPPERR
Kd [1]: 7.02 µM

B2: mouse TAPBPR luminal domain (moTAPBPR) (protein, UniProt Q8VD31 21-412, looked up)
chain: TDPPTAPTTAERQRQPTDIILDCFLVTEDRHRGAFASSGDRERALLVLKQVPVLDDGSLEGITDFQGSTETKQDSPVIFEASVDLVQIPQAEALLHADCSGKAVTCEISKYFLQARQEATFEKAHWFISNMQVSRGGPSVSMVMKTLRDAEVGAVRHPTLNLPLSAQGTVKTQVEFQVTSETQTLNHLLGSSVSLHCSFSMAPGLDLTGVEWRLQHKGSGQLVYSWKTGQGQAKRKGATLEPEELLRAGNASLTLPNLTLKDEGNYICQISTSLYQAQQIMPLNILAPPKIQLHLANKDPLPSLVCSIAGYYPLDVGVTWIREELGGIPAQVSGASFSSLRQSTMGTYSISSTVMADPGPTGATYTCQVAHVSLEEPLTTSMRVLPNPEQRG
MFI ratio [2]: < 5.8
